From article PMC6987189, “Native aggregation is a common feature among triosephosphate isomerases of different species” (Scientific Reports, 2020)

Tested on: O=C[C@H](O)COP(=O)(O)O
Experiment: purified protein
Type: biochemical, Giardia duodenalis
Conditions: GAP to DHAP direction, 25 °C, 100 mM TEA, 10 mM EDTA, 0.2 mM NADH, GAP 0.3 to 3 mM

## GlTIM (Giardia duodenalis; C202A)
  Km: 100 ± 10 µM
  kcat: 3280 ± 103 s⁻¹
  kcat/Km: 2.9e+07 M⁻¹ s⁻¹
